This is an account of results in patent publication US6372438.

For this experiment, the target named is 85 kD protein / PI3 kinase (phosphatidylinositol 3' kinase) of BALB/c 3T3 cells (mouse (BALB/c 3T3 cells)). The experiment can be described thus: competition: range of peptide concentrations preincubated with 3T3 lysate before immobilised receptor m1; in vitro kinase and PI3 kinase assays.

Square brackets hold non-standard residues; d marks the D form. Ends that are not written are not given here. pY = N[C@@H](Cc1ccc(OP(=O)(O)O)cc1)C(=O)O Some results are limits rather than exact numbers.

The IC50 is the midpoint of a concentration-inhibition curve. A lower IC50 goes with higher potency.

Sequence of 85 kD protein / PI3 kinase (phosphatidylinositol 3' kinase) of BALB/c 3T3 cells (mouse (BALB/c 3T3 cells)) (P26450 2-724): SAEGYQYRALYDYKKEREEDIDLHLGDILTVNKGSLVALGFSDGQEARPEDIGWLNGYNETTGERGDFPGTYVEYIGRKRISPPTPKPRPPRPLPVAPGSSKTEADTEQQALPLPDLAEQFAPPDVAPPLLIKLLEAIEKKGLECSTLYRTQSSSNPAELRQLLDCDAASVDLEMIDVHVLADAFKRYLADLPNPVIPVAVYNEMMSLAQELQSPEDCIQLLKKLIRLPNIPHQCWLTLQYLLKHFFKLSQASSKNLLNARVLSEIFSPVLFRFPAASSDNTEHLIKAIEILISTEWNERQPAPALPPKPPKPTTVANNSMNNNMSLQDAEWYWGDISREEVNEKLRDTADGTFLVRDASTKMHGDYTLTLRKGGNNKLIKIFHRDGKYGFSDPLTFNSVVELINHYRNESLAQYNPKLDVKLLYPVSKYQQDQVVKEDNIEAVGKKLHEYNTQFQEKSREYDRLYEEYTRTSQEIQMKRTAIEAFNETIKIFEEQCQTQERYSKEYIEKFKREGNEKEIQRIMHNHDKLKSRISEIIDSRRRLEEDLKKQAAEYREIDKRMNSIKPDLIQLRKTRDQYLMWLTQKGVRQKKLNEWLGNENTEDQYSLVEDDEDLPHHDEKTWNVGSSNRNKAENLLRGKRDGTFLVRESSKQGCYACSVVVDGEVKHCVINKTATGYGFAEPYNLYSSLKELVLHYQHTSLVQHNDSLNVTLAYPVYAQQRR

Molecule GGYMDMSKDESID[pY]VPMLDM [peptide Y719P] displayed an IC50 of under 5 µM.
